Data: US7087420B1, “Microbial β-glucuronidase genes, gene products and uses thereof” (Cambia, priority 1997, dated 2006)

B1: C, D, E: E. coli GUS mutein, Cys 197 to Ser, Cys 253 to Glu, Cys 262 to Ser (protein, UniProt P05804 1-603, looked up, variant C197S C253E C262S)
Beta-glucuronidase: MLRPVETPTREIKKLDGLWAFSLDRENCGIDQRWWESALQESRAIAVPGSFNDQFADADIRNYAGNVWYQREVFIPKGWAGQRIVLRFDAVTHYGKVWVNNQEVMEHQGGYTPFEADVTPYVIAGKSVRITVCVNNELNWQTIPPGMVITDENGKKKQSYFHDFFNYAGIHRSVMLYTTPNTWVDDITVVTHVAQDSNHASVDWQVVANGDVSVELRDADQQVVATGQGTSGTLQVVNPHLWQPGEGYLYELEVTAKSQTESDIYPLRVGIRSVAVKGEQFLINHKPFYFTGFGRHEDADLRGKGFDNVLMVHDHALMDWIGANSYRTSHYPYAEEMLDWADEHGIVVIDETAAVGFNLSLGIGFEAGNKPKELYSEEAVNGETQQAHLQAIKELIARDKNHPSVVMWSIANEPDTRPQGAREYFAPLAEATRKLDPTRPITCVNVMFCDAHTDTISDLFDVLCLNRYYGWYVQSGDLETAEKVLEKELLAWQEKLHQPIIITEYGVDTLAGLHSMYTDMWSEEYQCAWLDMYHRVFDRVSAVVGEQVWNFADFATSQGILRVGGNKKGIFTRDRKPKSAAFLLQKRWTGMNFGEKPQQGGKQ
B2: C: E. coli GUS mutein, Cys 197 changed to Ser (protein, UniProt P05804 1-603, looked up, variant C197S)
Beta-glucuronidase: MLRPVETPTREIKKLDGLWAFSLDRENCGIDQRWWESALQESRAIAVPGSFNDQFADADIRNYAGNVWYQREVFIPKGWAGQRIVLRFDAVTHYGKVWVNNQEVMEHQGGYTPFEADVTPYVIAGKSVRITVCVNNELNWQTIPPGMVITDENGKKKQSYFHDFFNYAGIHRSVMLYTTPNTWVDDITVVTHVAQDSNHASVDWQVVANGDVSVELRDADQQVVATGQGTSGTLQVVNPHLWQPGEGYLYELCVTAKSQTECDIYPLRVGIRSVAVKGEQFLINHKPFYFTGFGRHEDADLRGKGFDNVLMVHDHALMDWIGANSYRTSHYPYAEEMLDWADEHGIVVIDETAAVGFNLSLGIGFEAGNKPKELYSEEAVNGETQQAHLQAIKELIARDKNHPSVVMWSIANEPDTRPQGAREYFAPLAEATRKLDPTRPITCVNVMFCDAHTDTISDLFDVLCLNRYYGWYVQSGDLETAEKVLEKELLAWQEKLHQPIIITEYGVDTLAGLHSMYTDMWSEEYQCAWLDMYHRVFDRVSAVVGEQVWNFADFATSQGILRVGGNKKGIFTRDRKPKSAAFLLQKRWTGMNFGEKPQQGGKQ
B3: A, B, C, D, E: E. coli GUS mutein, Cys 28, 133, 197, 253, 262 changed to Asn, Ala, Ser, Glu, Ser (protein, UniProt P05804 1-603, looked up, variant C28N C133A C197S C253E C262S)
Beta-glucuronidase: MLRPVETPTREIKKLDGLWAFSLDRENNGIDQRWWESALQESRAIAVPGSFNDQFADADIRNYAGNVWYQREVFIPKGWAGQRIVLRFDAVTHYGKVWVNNQEVMEHQGGYTPFEADVTPYVIAGKSVRITVAVNNELNWQTIPPGMVITDENGKKKQSYFHDFFNYAGIHRSVMLYTTPNTWVDDITVVTHVAQDSNHASVDWQVVANGDVSVELRDADQQVVATGQGTSGTLQVVNPHLWQPGEGYLYELEVTAKSQTESDIYPLRVGIRSVAVKGEQFLINHKPFYFTGFGRHEDADLRGKGFDNVLMVHDHALMDWIGANSYRTSHYPYAEEMLDWADEHGIVVIDETAAVGFNLSLGIGFEAGNKPKELYSEEAVNGETQQAHLQAIKELIARDKNHPSVVMWSIANEPDTRPQGAREYFAPLAEATRKLDPTRPITCVNVMFCDAHTDTISDLFDVLCLNRYYGWYVQSGDLETAEKVLEKELLAWQEKLHQPIIITEYGVDTLAGLHSMYTDMWSEEYQCAWLDMYHRVFDRVSAVVGEQVWNFADFATSQGILRVGGNKKGIFTRDRKPKSAAFLLQKRWTGMNFGEKPQQGGKQ
B4: A, B, C, D, E, I: E. coli GUS mutein, Cys 28, 133, 197, 253, 262, 527 changed to Asn, Ala, Ser, Glu, Ser, Lys (protein, UniProt P05804 1-603, looked up, variant C28N C133A C197S C253E C262S C527K)
Beta-glucuronidase: MLRPVETPTREIKKLDGLWAFSLDRENNGIDQRWWESALQESRAIAVPGSFNDQFADADIRNYAGNVWYQREVFIPKGWAGQRIVLRFDAVTHYGKVWVNNQEVMEHQGGYTPFEADVTPYVIAGKSVRITVAVNNELNWQTIPPGMVITDENGKKKQSYFHDFFNYAGIHRSVMLYTTPNTWVDDITVVTHVAQDSNHASVDWQVVANGDVSVELRDADQQVVATGQGTSGTLQVVNPHLWQPGEGYLYELEVTAKSQTESDIYPLRVGIRSVAVKGEQFLINHKPFYFTGFGRHEDADLRGKGFDNVLMVHDHALMDWIGANSYRTSHYPYAEEMLDWADEHGIVVIDETAAVGFNLSLGIGFEAGNKPKELYSEEAVNGETQQAHLQAIKELIARDKNHPSVVMWSIANEPDTRPQGAREYFAPLAEATRKLDPTRPITCVNVMFCDAHTDTISDLFDVLCLNRYYGWYVQSGDLETAEKVLEKELLAWQEKLHQPIIITEYGVDTLAGLHSMYTDMWSEEYQKAWLDMYHRVFDRVSAVVGEQVWNFADFATSQGILRVGGNKKGIFTRDRKPKSAAFLLQKRWTGMNFGEKPQQGGKQ
B5: B: E. coli GUS mutein, Cys 133 changed to Ala (protein, UniProt P05804 1-603, looked up, variant C133A)
Beta-glucuronidase: MLRPVETPTREIKKLDGLWAFSLDRENCGIDQRWWESALQESRAIAVPGSFNDQFADADIRNYAGNVWYQREVFIPKGWAGQRIVLRFDAVTHYGKVWVNNQEVMEHQGGYTPFEADVTPYVIAGKSVRITVAVNNELNWQTIPPGMVITDENGKKKQSYFHDFFNYAGIHRSVMLYTTPNTWVDDITVVTHVAQDCNHASVDWQVVANGDVSVELRDADQQVVATGQGTSGTLQVVNPHLWQPGEGYLYELCVTAKSQTECDIYPLRVGIRSVAVKGEQFLINHKPFYFTGFGRHEDADLRGKGFDNVLMVHDHALMDWIGANSYRTSHYPYAEEMLDWADEHGIVVIDETAAVGFNLSLGIGFEAGNKPKELYSEEAVNGETQQAHLQAIKELIARDKNHPSVVMWSIANEPDTRPQGAREYFAPLAEATRKLDPTRPITCVNVMFCDAHTDTISDLFDVLCLNRYYGWYVQSGDLETAEKVLEKELLAWQEKLHQPIIITEYGVDTLAGLHSMYTDMWSEEYQCAWLDMYHRVFDRVSAVVGEQVWNFADFATSQGILRVGGNKKGIFTRDRKPKSAAFLLQKRWTGMNFGEKPQQGGKQ
B6: A: E. coli GUS mutein, Cys 28 changed to Asn (protein, UniProt P05804 1-603, looked up, variant C28N)
Beta-glucuronidase: MLRPVETPTREIKKLDGLWAFSLDRENNGIDQRWWESALQESRAIAVPGSFNDQFADADIRNYAGNVWYQREVFIPKGWAGQRIVLRFDAVTHYGKVWVNNQEVMEHQGGYTPFEADVTPYVIAGKSVRITVCVNNELNWQTIPPGMVITDENGKKKQSYFHDFFNYAGIHRSVMLYTTPNTWVDDITVVTHVAQDCNHASVDWQVVANGDVSVELRDADQQVVATGQGTSGTLQVVNPHLWQPGEGYLYELCVTAKSQTECDIYPLRVGIRSVAVKGEQFLINHKPFYFTGFGRHEDADLRGKGFDNVLMVHDHALMDWIGANSYRTSHYPYAEEMLDWADEHGIVVIDETAAVGFNLSLGIGFEAGNKPKELYSEEAVNGETQQAHLQAIKELIARDKNHPSVVMWSIANEPDTRPQGAREYFAPLAEATRKLDPTRPITCVNVMFCDAHTDTISDLFDVLCLNRYYGWYVQSGDLETAEKVLEKELLAWQEKLHQPIIITEYGVDTLAGLHSMYTDMWSEEYQCAWLDMYHRVFDRVSAVVGEQVWNFADFATSQGILRVGGNKKGIFTRDRKPKSAAFLLQKRWTGMNFGEKPQQGGKQ
B7: I: E. coli GUS mutein, Cys 527 changed to Lys (protein, UniProt P05804 1-603, looked up, variant C527K)
Beta-glucuronidase: MLRPVETPTREIKKLDGLWAFSLDRENCGIDQRWWESALQESRAIAVPGSFNDQFADADIRNYAGNVWYQREVFIPKGWAGQRIVLRFDAVTHYGKVWVNNQEVMEHQGGYTPFEADVTPYVIAGKSVRITVCVNNELNWQTIPPGMVITDENGKKKQSYFHDFFNYAGIHRSVMLYTTPNTWVDDITVVTHVAQDCNHASVDWQVVANGDVSVELRDADQQVVATGQGTSGTLQVVNPHLWQPGEGYLYELCVTAKSQTECDIYPLRVGIRSVAVKGEQFLINHKPFYFTGFGRHEDADLRGKGFDNVLMVHDHALMDWIGANSYRTSHYPYAEEMLDWADEHGIVVIDETAAVGFNLSLGIGFEAGNKPKELYSEEAVNGETQQAHLQAIKELIARDKNHPSVVMWSIANEPDTRPQGAREYFAPLAEATRKLDPTRPITCVNVMFCDAHTDTISDLFDVLCLNRYYGWYVQSGDLETAEKVLEKELLAWQEKLHQPIIITEYGVDTLAGLHSMYTDMWSEEYQKAWLDMYHRVFDRVSAVVGEQVWNFADFATSQGILRVGGNKKGIFTRDRKPKSAAFLLQKRWTGMNFGEKPQQGGKQ
B8: B, C, D, E: E. coli GUS mutein, Cys 133, 197, 253, 262 changed to Ala, Ser, Glu, Ser (protein, UniProt P05804 1-603, looked up, variant C133A C197S C253E C262S)
Beta-glucuronidase: MLRPVETPTREIKKLDGLWAFSLDRENCGIDQRWWESALQESRAIAVPGSFNDQFADADIRNYAGNVWYQREVFIPKGWAGQRIVLRFDAVTHYGKVWVNNQEVMEHQGGYTPFEADVTPYVIAGKSVRITVAVNNELNWQTIPPGMVITDENGKKKQSYFHDFFNYAGIHRSVMLYTTPNTWVDDITVVTHVAQDSNHASVDWQVVANGDVSVELRDADQQVVATGQGTSGTLQVVNPHLWQPGEGYLYELEVTAKSQTESDIYPLRVGIRSVAVKGEQFLINHKPFYFTGFGRHEDADLRGKGFDNVLMVHDHALMDWIGANSYRTSHYPYAEEMLDWADEHGIVVIDETAAVGFNLSLGIGFEAGNKPKELYSEEAVNGETQQAHLQAIKELIARDKNHPSVVMWSIANEPDTRPQGAREYFAPLAEATRKLDPTRPITCVNVMFCDAHTDTISDLFDVLCLNRYYGWYVQSGDLETAEKVLEKELLAWQEKLHQPIIITEYGVDTLAGLHSMYTDMWSEEYQCAWLDMYHRVFDRVSAVVGEQVWNFADFATSQGILRVGGNKKGIFTRDRKPKSAAFLLQKRWTGMNFGEKPQQGGKQ

system: KW1; experiment: X-GlcA staining of low-cysteine E. coli GUS muteins in KW1; assay type: cell-based; conditions: pBS backbone in KW1, staining with X-GlcA
Excerpt: Single and multiple Cys muteins are constructed by site-directed mutagenesis techniques. Eight of the nine cysteine residues in E. coli GUS are changed to the corresponding residue found in human GUS based on alignment of the two protein sequences. One of the E. coli GUS cysteine residues, amino acid 463, aligns with a cysteine residue in human GUS and was not altered. The corresponding amino acids between E. coli GUS and human GUS are shown below.
The mutein GUS genes are cloned into a pBS backbone. The mutations are confirmed by diagnostic restriction site changes and by DNA sequence analysis. Recombinant vectors are transfected into KW1 and GUS activity assayed by staining with X-GlcA (5-bromo-4-chloro-3-indolyl-β-D-glucuronide).

Row | Molecule | GUS activity
1 | B1 | Yes
2 | B2 | Yes
3 | B3 | Yes
4 | B4 | No
5 | B5 | Yes
6 | B6 | Yes
7 | B7 | No
8 | B8 | Yes
